Results taken from IntAct's records for PubMed 31515488.

B1: Transcription factor 12 (Homo sapiens), Q99081-3 (parent)
chain: MNPQQQRMAAIGTDKELSDLLDFSAMFSPPVNSGKTRPTTLGSSQFSGSGIDERGGTTSWGTSGQPSPSYDSSRGFTDSPHYSDHLNDSRLGAHEGLSPTPFMNSNLMGKTSERGSFSLYSRDTGLPGCQSSLLRQDLGLGSPAQLSSSGKPGTAYYSFSATSSRRRPLHDSAALDPLQAKKVRKVPPGLPSSVYAPSPNSDDFNRESPSYPSPKPPTSMFASTFFMQDGTHNSSDLWSSSNGMSQPGFGGILGTSTSHMSQSSSYGNLHSHDRLSYPPHSVSPTDINTSLPPMSSFHRGSTSSSPYVAASHTPPINGSDSILGTRGNAAGSSQTGDALGKALASIYSPDHTSSSFPSNPSTPVGSPSPLTGTSQWPRPGGQAPSSPSYENSLHSLKNRVEQQLHEHLQDAMSFLKDVCEQSRMEDRLDRLDDAIHVLRNHAVGPSTSLPAGHSDIHSLLGPSHNAPIGSLNSNYGGSSLVASSRSASMVGTHREDSVSLNGNHSVLSSTVTTSSTDLNHKTQENYRGGLQSQSGTVVTTEIKTENKEKDENLHEPPSSDDMKSDDESSQKDIKVSSRGRTSSTNEDEDLNPEQKIEREKERRMANNARERLRVRDINEAFKELGRMCQLHLKSEKPQTKLLILHQAVAVILSLEQQVRERNLNPKAACLKRREEEKVSAVSAEPPTTLPGTHPGLSETTNPMGHM
B2: Ligand of Numb protein X 2 (Homo sapiens), Q8N448 (parent)
chain: MGTTSDEMVSVEQTSSSSLNPLCFECGQQHWTRENHLYNYQNEVDDDLVCHICLQPLLQPLDTPCGHTFCYKCLRNFLQEKDFCPLDRKRLHFKLCKKSSILVHKLLDKLLVLCPFSSVCKDVMQRCDLEAHLKNRCPGASHRRVALERRKTSRTQAEIENENGPTLLDPAGTLSPEADCLGTGAVPVERHLTSASLSTWSEEPGLDNPAFEESAGADTTQQPLSLPEGEITTIEIHRSNPYIQLGISIVGGNETPLINIVIQEVYRDGVIARDGRLLAGDQILQVNNYNISNVSHNYARAVLSQPCNTLHLTVLRERRFGNRAHNHSDSNSPREEIFQVALHKRDSGEQLGIKLVRRTDEPGVFILDLLEGGLAAQDGRLSSNDRVLAINGHDLKYGTPELAAQIIQASGERVNLTIARPGKPQPGNTIREAGNHSSSSQHHTPPPYYSRPSSHKDLTQCVTCQEKHITVKKEPHESLGMTVAGGRGSKSGELPIFVTSVPPHGCLARDGRIKRGDVLLNINGIDLTNLSHSEAVAMLKASAASPAVALKALEVQIVEEATQNAEEQPSTFSENEYDASWSPSWVMWLGLPSTLHSCHDIVLRRSYLGSWGFSIVGGYEENHTNQPFFIKTIVLGTPAYYDGRLKCGDMIVAVNGLSTVGMSHSALVPMLKEQRNKVTLTVICWPGSLV

Variants of: B1
Conditions: with cdn2c_human CDKN2C

Row | effect of a mutation on the interaction | Variant
1 | with no effect | R74G
2 | with no effect | N606H
3 | with no effect | S446F
4 | with no effect | A482V

Variants of: B1
Conditions: with psa1_human PSMA1, P25786

Row | effect of a mutation on the interaction | Variant
5 | with no effect | R74G
6 | with no effect | N606H
7 | with no effect | S446F
8 | with no effect | A482V

Variants of: B2
Conditions: with mk09_human MAPK9, P45984

Row | effect of a mutation on the interaction | Variant
9 | with no effect | S141A
10 | with no effect | V145I
11 | with no effect | T183I

Variants of: B2
Conditions: with optn_human OPTN

Row | effect of a mutation on the interaction | Variant
12 | with no effect | S141A
13 | with no effect | V145I
14 | with no effect | T183I

Variants of: B2
Conditions: with tbb5_human TUBB

Row | effect of a mutation on the interaction | Variant
15 | with no effect | V145I
16 | with no effect | T183I

Variants of: B2
Conditions: with at2l2_human PHYKPL

Row | effect of a mutation on the interaction | Variant
17 | with no effect | V145I
18 | with no effect | T183I

Variants of: B2
Conditions: with ip6k2_human IP6K2, Q9UHH9

Row | effect of a mutation on the interaction | Variant
19 | with no effect | V145I
20 | with no effect | T183I

Variants of: B2
Conditions: with lrc8e_human LRRC8E

Row | effect of a mutation on the interaction | Variant
21 | with no effect | S198P

Variants of: B2
Conditions: with atpb_human ATP5F1B

Row | effect of a mutation on the interaction | Variant
22 | with no effect | S198P

Variants of: B2
Conditions: with ptcd3_human PTCD3, Q96EY7

Row | effect of a mutation on the interaction | Variant
23 | with no effect | S198P
